# Data: patent US20210371823A1
# Molecular target: human MICA protein (hMICA) (human) (UniProt Q29983)
# Experiment: cell-based or functional assay
# Sequence of UniProt Q29983 (Q29983 24-383): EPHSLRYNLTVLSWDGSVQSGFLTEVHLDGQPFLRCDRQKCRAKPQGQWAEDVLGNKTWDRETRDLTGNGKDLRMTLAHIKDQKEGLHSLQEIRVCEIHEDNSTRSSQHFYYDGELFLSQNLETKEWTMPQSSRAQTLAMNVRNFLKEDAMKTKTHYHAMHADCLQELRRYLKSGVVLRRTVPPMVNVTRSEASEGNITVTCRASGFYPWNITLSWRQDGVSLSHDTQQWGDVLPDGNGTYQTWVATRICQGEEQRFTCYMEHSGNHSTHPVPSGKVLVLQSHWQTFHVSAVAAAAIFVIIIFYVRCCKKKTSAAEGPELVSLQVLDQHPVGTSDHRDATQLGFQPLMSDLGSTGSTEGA
substance,measurement,value
activation receptor NKG2D on NK cells (from UniProt P26718 1-216),killing effect of NK cells on 3T3-Luc/hMICA cells at effector-target ratio 1:1 (luciferase-based killing assay),60%
